The labels stand for the following.
B1: RB6 (antibody, V domains shown)
VH: EVQLLESGGGLVQPGGSLRLSCAASGFTFSSYDMSWVRQAPGKGLEWVSGISYSGGSTYYADSVKGRFTISRDNSKNTLYLQMNSLRAEDTAVYYCARDVNFVPLVTFDYWGQGTLVTVSS
VL: QSVLTQPPSASGTPGQRVTLSCTGSSSNIGSNSVTWYQQLPGTAPKLLIYDDNQRPSGVPDRFSGSKSGTSASLAISGLRSEDEADYYCGTWDYSLSAYVFGGGTKLTVL
notes: also called SARS-CoV-2 RBD 특이적 IgG 선별항체 RB6; clone RB6
B2: RD10 (antibody, V domains shown)
VH: EVQLLESGGGLVQPGGSLRLSCAASGFTFSDYAMSWVRQAPGKGLEWVSAIYPGGGSTYYADSVKGRFTISRDNSKNTLYLQMNSLRAEDTAVYYCARNLFGFDYWGQGTLVTVSS
VL: QSVLTQPPSASGTPGQRVTISCTGSSSNIGSNAVYWYQQLPGTAPKLLIYDDSNRPSGVPDRFSGSKSGTSASLAISGLRSEDEADYYCGSWDDSLSAYVFGGGTKLTVL
notes: also called SARS-CoV-2 RBD 특이적 IgG 선별항체 RD10; clone RD10
B3: RD3 (antibody, V domains shown)
VH: EVQLLESGGGLVQPGGSLRLSCAASGFTFSDYAMSWVRQAPGKGLEWVSWIYSGSGNKYYADSVKGRFTISRDNSKNTLYLQMNSLRAEDTAVYYCARFPIARTSNSQSSYDGMDVWGQGTLVTVSS
VL: QSVLTQPPSASGTPGQRVTISCSGSSSNIGSNAVSWYQQLPGTAPKLLIYADNKRPSGVPDRFSGSKSGTSASLAISGLRSEDEADYYCGAWDSSLNAYVFGGGTKLTVL
notes: also called SARS-CoV-2 RBD 특이적 IgG 선별항체 RD3; clone RD3

Results on three molecules are retold here after patent publication KR20220147765A (dated 2022).

The experiment deals with T1, SARS-CoV S 단백질의 RBD 항원 (SARS-CoV, UniProt P59594 306-527).
T1 construct: also called SARS-CoV RBD
Kind of experiment: ELISA, 0.1 μg antigen coated, IgG4.
In the case of B1, the binding result is “binds”. The value for B2 was “binds”; that for B3 was “binds”.
